This note sets out measurements from the nanobody polyreactivity screen of Harvey et al. (2022).

The data set in a line: yeast display, Sf9 membrane polyspecificity reagent, FACS + sequencing; frameworks hold sequencing errors. In a few lines:
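A nanobody's polyreactivity label depends on the gate it was sorted from. Yeast display cells were stained with 10% biotinylated, detergent-solubilized Sf9 membrane reagent for 1 hour at 4 °C, enriched on streptavidin microbeads and sorted by FACS. The low and high (top ~1%) gates were set on anti-HA fluorescence for expression and streptavidin fluorescence for reagent binding.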
Regarding “QVQLVESGGGLVQAGGSLRLSCAASGRTFSYYAMGWYRQAPGKERELVARITYRGGRTYYADSVKGRFTISRDHAKNTVYLQMNSLKPEDTAVYYCNADAIYKRGGRDYWGQGTQVTVSS”, the “polyreactivity (PSR sort gate)” value is recorded as “high polyreactivity”.
For “QVQLVESGGGLVQAGGSLRLSCAASGRTFSYYAMGWYRQAPGKERELVASISGGGRTNYADSVKGRFTISRDNAKITVYLQMNSVKPEDTAVYYCAASYQITRQYKRGYWGQGTQVTVSS” the value was “high polyreactivity”; for “QVQLVESGGGLVQAGGSLRLSCAASGRTFSYYARGWYRQAPGKERELVAAISSGGSTNYADSVKGRFTISRDNAKNTVYFQMNSLKPEDTAVYYCAALWSGYKFNYWGQGTQVTVSS”, “low polyreactivity”.
Take “QVQLVESGGGLVQAGGSLRLSCAASGRTFTEYAMGWYRQAPGKEREFVARIRWSDGSTYYADSVKGRFTISRDNAKNTVYLQMNSLLPEDTAVYYCAARYIETPVTVLSLMDYWGQGTQVTVSS”: the “polyreactivity (PSR sort gate)” value is recorded as “low polyreactivity”.
For “QVQLVESGGGLVQAGGSLRLSCAASGRTFTFYAMGWYRQAPGKERELVAAIRRGGSTIYADSVKGRFTISRDNAKNTVYLQMNSLKPEDTAVYYCNKRVWYPYWTLDYWGQGTQVTVSS” the value was “low polyreactivity”; for “QVQLVESGGGLVQAGGSLRLSCAASGRTFTFYAMGWYRQAPGKERELVAAITWSGGSTYYADSVKGRFTISRDNAKNTVYLQRNSLKPEDTAVYYCAKLDVISDDLDYWGQGTQVTVSS”, “low polyreactivity”.
For “QVQLVESGGGLVQAGGSLRLSCAASGRTFTHYAMGWYRQAPGKERELVAAITASGGSTYYADSVKGRFTISRDNAQNTVYLQMNSLKPEDTAVYYCATEANQRTLNDTVKDYDYWGQGTQVTVSS” the value was “low polyreactivity”; for “QVQLVESGGGLVQAGGSLRLSCAASGRTFTINTMGWYRQAPGKERELVAAITVSGGSTYYADSVKGRFTISRDNAKNTVYLQMNSLKPEDTAVYYCAAQRSYVNLGQTHDYWGQGTQVNVSS”, “low polyreactivity”; for “QVQLVESGGGLVQAGGSLRLSCAASGRTFTKNAMGWYRQAPGKEREFVAAISKSTGSTYYADSVKGRFTISRDNAKNTVYLQMNSLKPEDTAVYYCNARYRFFIQARWGYIFGYWGQGTQVTVSS”, “high polyreactivity”.
For “QVQLVESGGGLVQAGGSLRLSCAASGRTFTKYAMGWYRQAPGKERELVAAISRSGGSTYYADSVKGRFTISRDNAKNTVYLQMNSLKPEDTAVYYCAARGQYRYSFGDYSWGQGTQVTVSS” the value was “high polyreactivity”; for “QVQLVESGGGLVQAGGSLRLSCAASGRTFTLYAMGWYRQAPGKERELVASITSGTRTYYADSVKGRFTISRDNAKNTVYLQMNSLKPEDTAVYYCAKEGYLRTLHRLYDYWGQGTQVTVSS”, “low polyreactivity”; for “QVQLVESGGGLVQAGGSLRLSCAASGRTFTPYAMGWYRQAPGKERELVAAIDTSGGSTYADSVKGRFTISRDNAKNTVYLQMNSLKPEDTAVYYCAATRHSRVRGGDYWGQGTQVTVSS”, “low polyreactivity”.
On to “QVQLVESGGGLVQAGGSLRLSCAASGRTFTPYAMGWYRQAPGKERELVAAISIGGPTNYADSVKGRFTISRDNAKNTVYLQMNSLKPEDTADYYCAADSYYLGRDGFGFYAYTYDYWGQGTEVTVSS”, for which the “polyreactivity (PSR sort gate)” value is reported as “low polyreactivity”.
As to “QVQLVESGGGLVQAGGSLRLSCAASGRTFTRNAMGWYRQAPGKDRELVAAISYSGGSTYYADSVKGRFTISRDNAKNTVYLQMNSLKPEDTAVYYCNAATSRRSIRYDYWGQGTQVTVSS”, the “polyreactivity (PSR sort gate)” value was “high polyreactivity”.
For “QVQLVESGGGLVQAGGSLRLSCAASGRTFTRYAMGWYRQAPGKERELVAAISGGGGSTYYADSVKGRFTISRDNAKNTVYLQMNSLKPEDTAVYYCAAGPWFYYWGQGTQVTVSS” the value was “low polyreactivity”; for “QVQLVESGGGLVQAGGSLRLSCAASGRTFTRYAMGWYRQAPGKERELVAAISRGGSTYYADSVKGRFTISRDNAKNTVYLQMNSPKPEDTAVYYCAARYGTYTAGNYWGQGTQVTVSS”, “high polyreactivity”.
As for “QVQLVESGGGLVQAGGSLRLSCAASGRTFTRYAMGWYRQAPGKERELVATITRGGSTNYADSVKGRFTISRDNAKNTVYLQMNSLKPEDTAVYYCAAGYFIRTRSRYRYDYWGQCTQVTVSS”, the entry is “high polyreactivity”.
For the sequence “QVQLVESGGGLVQAGGSLRLSCAASGRTFTRYAMGWYRQPPGKESELVAAISRGGNTNYADSVKGRFTISRDNAKNTVYLQMNSLKPEDTAVYYCARVYGGYSVPSAYGSWGQGTQVTVSS”, the “polyreactivity (PSR sort gate)” value is “high polyreactivity”.
“QVQLVESGGGLVQAGGSLRLSCAASGRTFTRYAMGWYRQSPGKERELVAAISTSGDSTYYADSVKGRFTISRDNAKNTVYLQMNSLKPVDTAVYYCNTYWTSEYDYWGQGTQVTVSW”: the “polyreactivity (PSR sort gate)” value is on record as “low polyreactivity”.
As for “QVQLVESGGGLVQAGGSLRLSCAASGRTFTSNAMGWYRQAPGKERELVAAITQSGGSTYYADSVKGRFTISRDNAKNTVYLQMNSLKPEDTAVYYCNAETTGRTEYNYWGQGTQVTVSS”, the entry is “low polyreactivity”.
As for “QVQLVESGGGLVQAGGSLRLSCAASGRTFTSNGMGWYRQAPGKERELVAAITSGTSTYYADSVKGRFTISRDNAKNPVYLQMNSLKPEDTAVYYCNKLVPRGSSYSTVIRGGGYWGQGTQVTVSS”, the entry is “high polyreactivity”; as for “QVQLVESGGGLVQAGGSLRLSCAASGRTFTSYAMGCYRQEPGKERELVAAITRGGRTNYADSVKGRFTISRDNAKNTVYLQMNSLKPEDTAVYYCNTEIRLSKYDYWGQGTQVTVSS”, “low polyreactivity”; as for “QVQLVESGGGLVQAGGSLRLSCAASGRTFTTYTMGWYRQAPGKERELVASINYRGGRTYYADSVKGRFTISRDNAKNTVYLQMNSLKPEDTAVYYCAYYPYGYDYWGQGTQVTVSS”, “high polyreactivity”.
Consider “QVQLVESGGGLVQAGGSLRLSCAASGRTFTVYPMGWYRQAPVKEREFVAAITERGGSTYYADSVKGRFTISRDNAKNTVYLQMNSLKPEDTAVYYCAAVYYWRPGWYVRFDYWGQGTQVTVSS”, for which the “polyreactivity (PSR sort gate)” value is “low polyreactivity”.
For “QVQLVESGGGLVQAGGSLRLSCAASGRTFTWNVMGWYIQAPGKERELVAAISSSGGDTYYADSVKGRFTISRDNAKNTVYLHMNSLKPEDTAVYYCAAGQVYSGYEYWGQGTQVTVSS” the value was “low polyreactivity”; for “QVQLVESGGGLVQAGGSLRLSCAASGRTFTWNVMGWYRQAPGKERELVAAITTDDRTYADSEKGRFTISRDNAKNTVYLQMNSLKQEDTAVYYCATVVAWTSRPVGEDYWGQGTQVTVSS”, “low polyreactivity”.
For “QVQLVESGGGLVQAGGSLRLSCAASGRTFTYNAMGWYRQAPGKERELVAAITYRGGSTYYADSVKGRFTISRDNAKNTVYLQMNSLKPEDTAVYYCAARVSYYRYNTPHYYYWGQGTQVTVSS” the value was “high polyreactivity”; for “QVQLVESGGGLVQAGGSLRLSCAASGRTFTYYAMGWYRQAPGKERELVAAISWSGDDTYYADSVKGRFTISRDNAKNTVYLQMHSLKPEDTAVYYCAAEGGGVYSDYRENTGEDYWGQGTQVTVSS”, “low polyreactivity”.
As for “QVQLVESGGGLVQAGGSLRLSCAASGRTFVAKTMGWYRQAPGKERELVAAISSSGGSTYYADSVKGRFTISRDNAKNTVYLQMNSLKPEDTAVYYCAKTHSGWWRYGYWGQGTQVTVSS”, the entry is “high polyreactivity”; as for “QVQLVESGGGLVQAGGSLRLSCAASGRTFVANAMGWYRQAPGKERELVAAITSTGSTYYADSVKGRFTISRDNAKNTVYLQMNSLKPEDTAVYYCATYYWLGLSLYDYWGQGSQVTVSS”, “low polyreactivity”.
With “QVQLVESGGGLVQAGGSLRLSCAASGRTFVDYDMGWYRQAPGKERELVADINSGGSTYYADSVKGRFTISRDNAKNTVYLQMNRLKPEDTAVYYCAADDGWGYISSYDYEYWGQGTQVTVSS”, the “polyreactivity (PSR sort gate)” value is given as “high polyreactivity”.
For the sequence “QVQLVESGGGLVQAGGSLRLSCAASGRTFVGNTMGWYRQAPGKERELVAAISTGDGSTTYADSVKGRFTISRDNAKNTVYLQMNSLKPEDTAVYYCNVKYRASYRTDFEYWGLGTQVTVSS”, the “polyreactivity (PSR sort gate)” value is “low polyreactivity”.
As for “QVQLVESGGGLVQAGGSLRLSCAASGRTFVGYTMGWYRQAPGKERELVAAIDLSDGSTSYADSVKGRFTISRDNAKNSVYLQMNSLKPEDTAVYYCAKTWANVYAGAHDYWGQGTQVTVSS”, the entry is “low polyreactivity”; as for “QVQLVESGGGLVQAGGSLRLSCAASGRTFVGYTMGWYRQAPGKERELVAAIDLSDGSTSYADSVKGRFTISRDNAKNTVYLQMNSLKPEDTAVYYCAKSWANVYAGAHDYWGQGTQVTVSS”, “low polyreactivity”; as for “QVQLVESGGGLVQAGGSLRLSCAASGRTFVNNAMGWYRQAPGKERELVAAITRSGGRTYYADSVKGRFTISRDNAKNTVYLQMNSLKPVDTAVYYCATANVRLRHDDYWGQGTQVTVSS”, “high polyreactivity”.
As for “QVQLVESGGGLVQAGGSLRLSCAASGRTFVNYALGWYRQAPWKERELVAGISSDGSTYYADSEKGRFTISRDNAKNTVYLQMNSLKPEDTAVYYCATEIRITGLYRYDYWGQGTQVTVSS”, the entry is “low polyreactivity”.
For “QVQLVESGGGLVQAGGSLRLSCAASGRTFVPYAMGWYRQAPGKEREFVAVITWGGGSTYYADSVKGRFTISRDNAKNTVYLQMNSLKPEDTAVYYCAARNRRATGLGSRYGYWGQGTQVTVSS” the value was “high polyreactivity”; for “QVQLVESGGGLVQAGGSLRLSCAASGRTFVPYAMGWYRQAPGKERELVATNNRSGGTTYYADSVKGRFTISRDNAKNTVYLQMNSLKPEDTAVYYCNKSPYYTVWSTRGNQFSRFYYWGQGTQVTVSS”, “high polyreactivity”; for “QVQLVESGGGLVQAGGSLRLSCAASGRTFVPYAMGWYRQAPGKEREMVAAISQSGGRTYYTDSVKGRFTISRDNAKNTVYLLMNSLKPEDTAVYYCAARGPYRPPHGDAYYTYVYWGQGTQVTVSS”, “high polyreactivity”.
Regarding “QVQLVESGGGLVQAGGSLRLSCAASGRTFVPYDMGLYRQAPGKERELVAAISSGDSTNYTDSVKGRFTISRDNAKNTVYLQMNSLKPEDTAVYYCAADLTYTMDHWGQGTQVTVSS”, the “polyreactivity (PSR sort gate)” value was “low polyreactivity”.
As for “QVQLVESGGGLVQAGGSLRLSCAASGRTFVPYVMGWYRQAPGKERELVATINWSGGSTYYADSVKGRFTISRDNAKNTVYLQMNSLKPEDTAVYYCAADYYWTYSYYYERFDYWGLGTQVTVSS”, the entry is “low polyreactivity”.
